# Results as given in US20160230173A1.
# T1: Wild-type glucocorticoid receptor, Myc-DDK tagged NR3C1 (Origene catalog # RC220189), substrate of the CASP1 enzymatic assay
# T1 chain: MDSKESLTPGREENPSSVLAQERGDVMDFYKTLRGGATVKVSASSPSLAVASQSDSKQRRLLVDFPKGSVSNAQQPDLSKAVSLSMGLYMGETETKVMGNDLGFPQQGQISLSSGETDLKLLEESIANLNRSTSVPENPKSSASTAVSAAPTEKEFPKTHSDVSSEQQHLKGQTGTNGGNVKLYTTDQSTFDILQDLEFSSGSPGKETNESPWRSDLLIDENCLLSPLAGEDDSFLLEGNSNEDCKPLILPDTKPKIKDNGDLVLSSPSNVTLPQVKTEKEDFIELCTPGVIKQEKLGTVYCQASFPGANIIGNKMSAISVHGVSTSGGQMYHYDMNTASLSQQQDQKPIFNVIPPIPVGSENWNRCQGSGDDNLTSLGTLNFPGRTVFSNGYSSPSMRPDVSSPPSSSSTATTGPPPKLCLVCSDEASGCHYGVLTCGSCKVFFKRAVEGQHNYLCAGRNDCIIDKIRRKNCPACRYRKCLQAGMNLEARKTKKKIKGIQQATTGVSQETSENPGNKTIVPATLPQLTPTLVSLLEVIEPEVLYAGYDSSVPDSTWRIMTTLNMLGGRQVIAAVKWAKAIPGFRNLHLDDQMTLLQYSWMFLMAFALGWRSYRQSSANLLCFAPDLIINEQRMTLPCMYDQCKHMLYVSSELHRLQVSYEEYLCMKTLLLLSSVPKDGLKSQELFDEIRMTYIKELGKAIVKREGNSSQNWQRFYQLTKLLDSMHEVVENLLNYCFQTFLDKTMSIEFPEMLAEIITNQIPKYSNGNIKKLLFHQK
# B1: Recombinant human CASP1 (Enzo Life Sciences CASP1 assay kit for drug discovery, catalog number BML-AK701-0001) (protein)
# chain: NPAMPTSSGSEGNVKLCSLEEAQRIWKQKSAEIYPIMDKSSRTRLALIICNEEFDSIPRRTGAEVDITGMTMLLQNLGYSVDVKKNLTASDMTTELEAFAHRPEHKTSDSTFLVFMSHGIREGICGKKHSEQVPDILQLNAIFNMLNTKNCPSLKDKPKVIIIQACRGDSPGVVWFKDSVGVSGNLSLPTTEEFEDDAIKKAHIEKDFIAFCSSTPDNVSWRHPTMGSVFIGRLIEHMQEYACSCDVEEIFRKVRFSFEQPDGRAQMPTTERVTLTRCFYLFPGH
# Molecular target: T1, Wild-type glucocorticoid receptor, …
protein,measurement,value
B1,cleavage of GR in CASP1 enzymatic assay (western blot),enzymatic assays were performed that revealed glucocorticoid receptor (NR3C1) cleavage by recombinant CASP1
